Assay results taken from patent US20180282429A1 (Zymeworks, published 2018).

Experiments:
[1] = target: T1, recombinant human HER2 (human, UniProt P04626 23-652); assay: SPR by the protocol of Example 12, sample after SEC, against v10013
T1 construct: extracellular domain
Method: (§1) Between 2000 and 4000 RU of anti-human Fc injected at concentration between 5 and 10 μg/ml was immobilized on a CM5 chip using standard amine coupling. […] HER2 dilutions were analyzed in duplicate. Sensograms were fit globally to a 1:1 Langmuir binding model. All experiments were conducted at 25° C.
(§2) The SPR was measured before and after SEC purification.

[2] = target: T1, recombinant human HER2; assay: SPR by the protocol of Example 12, sample before SEC, against v10013
Method: as §1, §2

B1: Variant 10014 (antibody, human IgG1, kappa)
heavy: EVQLVESGGGLVQPGGSLRLSCAASGFTFADYTMDWVRQAPGKGLEWVADVNPNSGGSIYNQRFKGRFTLSVDRSKNTLYLQMNSLRAEDTAVYYCARNLGPSFYFDYWGQGTLVTVSSASTKGPSVFPLAPSSKSTSGGTAALGCLVKDYFPEPVTVSWNSGALTSGVHTFPAVLQSSGLYSLSSVVTVPSSSLGTQTYICNVNHKPSNTKVDKKVEPKSCDKTHTCPPCPAPELLGGPSVFLFPPKPKDTLMISRTPEVTCVVVDVSHEDPEVKFNWYVDGVEVHNAKTKPREEQYNSTYRVVSVLTVLHQDWLNGKEYKCKVSNKALPAPIEKTISKAKGQPREPQVYVYPPSRDELTKNQVSLTCLVKGFYPSDIAVEWESNGQPENNYKTTPPVLDSDGSFALVSKLTVDKSRWQQGNVFSCSVMHEALHNHYTQKSLSLSPG
light: not shown
Fc: not shown
notes: also called v10014
Fold wrt WT (KD(WT)/KD(mut)) [1]: 7 fold
Fold wrt WT (KD(WT)/KD(mut)) [2]: 8.1 fold
